# B1: Glutaryl-CoA dehydrogenase, mitochondrial (Homo sapiens), Q92947 (parent)
# chain: MALRGVSVRLLSRGPGLHVLRTWVSSAAQTEKGGRTQSQLAKSSRPEFDWQDPLVLEEQLTTDEILIRDTFRTYCQERLMPRILLANRNEVFHREIISEMGELGVLGPTIKGYGCAGVSSVAYGLLARELERVDSGYRSAMSVQSSLVMHPIYAYGSEEQRQKYLPQLAKGELLGCFGLTEPNSGSDPSSMETRAHYNSSNKSYTLNGTKTWITNSPMADLFVVWARCEDGCIRGFLLEKGMRGLSAPRIQGKFSLRASATGMIIMDGVEVPEENVLPGASSLGGPFGCLNNARYGIAWGVLGASEFCLHTARQYALDRMQFGVPLARNQLIQKKLADMLTEITLGLHACLQLGRLKDQDKAAPEMVSLLKRNNCGKALDIARQARDMLGGNGISDEYHVIRHAMNLEAVNTYEGTHDIHALILGRAITGIQAFTASK
# partner: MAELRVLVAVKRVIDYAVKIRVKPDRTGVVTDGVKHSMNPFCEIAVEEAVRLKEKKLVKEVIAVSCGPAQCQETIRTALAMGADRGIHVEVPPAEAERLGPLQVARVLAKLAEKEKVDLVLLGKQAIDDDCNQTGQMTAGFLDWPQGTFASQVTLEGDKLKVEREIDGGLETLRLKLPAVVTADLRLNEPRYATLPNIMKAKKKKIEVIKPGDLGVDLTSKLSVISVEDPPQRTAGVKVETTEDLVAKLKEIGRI
# Variants of: B1
# Conditions: with etfb_human ETFB
row,effect of a mutation on the interaction,Variant
1,decreasing interaction strength,MALRGVSVRLLSRGPGLHVLRTWVSSAAQTEKGGRTQSQLAKSSRPEFDWQDPLVLEEQLTTDEILIRDTFRTYCQERLMPRILLANRNEVFHREIISEMGELGVLGPTIKGYGCARVSSVAYGLLARELERVDSGYRSAMSVQSSLVMHPIYAYGSEEQRQKYLPQLAKGELLGCFGLTEPNSGSDPSSMETRAHYNSSNKSYTLNGTKTWITNSPMADLFVVWARCEDGCIRGFLLEKGMRGLSAPRIQGKFSLRASATGMIIMDGVEVPEENVLPGASSLGGPFGCLNNARYGIAWGVLGASEFCLHTARQYALDRMQFGVPLARNQLIQKKLADMLTEITLGLHACLQLGRLKDQDKAAPEMVSLLKRNNCGKALDIARQARDMLGGNGISDEYHVIRHAMNLEAVNTYEGTHDIHALILGRAITGIQAFTASK [G117R]
2,increasing interaction strength,MALRGVSVRLLSRGPGLHVLRTWVSSAAQTEKGGRTQSQLAKSSRPEFDCQDPLVLEEQLTTDEILIRDTFRTYCQERLMPRILLANRNEVFHREIISEMGELGVLGPTIKGYGCAGVSSVAYGLLARELERVDSGYRSAMSVQSSLVMHPIYAYGSEEQRQKYLPQLAKGELLGCFGLTEPNSGSDPSSMETRAHYNSSNKSYTLNGTKTWITNSPMADLFVVWARCEDGCIRGFLLEKGMRGLSAPRIQGKFSLRASATGMIIMDGVEVPEENVLPGASSLGGPFGCLNNARYGIAWGVLGASEFCLHTARQYALDRMQFGVPLARNQLIQKKLADMLTEITLGLHACLQLGRLKDQDKAAPEMVSLLKRNNCGKALDIARQARDMLGGNGISDEYHVIRHAMNLEAVNTYEGTHDIHALILGRAITGIQAFTASK [W50C]
3,increasing interaction strength,MALRGVSVRLLSRGPGLHVLRTWVSSAAQTEKGGRTQSQLAKSSRPEFDWQDPLVLEEQLTTDEILIRDTFRTYCQERLMPRILLANRNKVFHREIISEMGELGVLGPTIKGYGCAGVSSVAYGLLARELERVDSGYRSAMSVQSSLVMHPIYAYGSEEQRQKYLPQLAKGELLGCFGLTEPNSGSDPSSMETRAHYNSSNKSYTLNGTKTWITNSPMADLFVVWARCEDGCIRGFLLEKGMRGLSAPRIQGKFSLRASATGMIIMDGVEVPEENVLPGASSLGGPFGCLNNARYGIAWGVLGASEFCLHTARQYALDRMQFGVPLARNQLIQKKLADMLTEITLGLHACLQLGRLKDQDKAAPEMVSLLKRNNCGKALDIARQARDMLGGNGISDEYHVIRHAMNLEAVNTYEGTHDIHALILGRAITGIQAFTASK [E90K]
4,increasing interaction strength,MALRGVSVRLLSRGPGLHVLRTWVSSAAQTEKGGRTQSQLAKSSRPEFDWQDPLVLEEQLTTDEILIRDTFRTYCQERLMPRILLANRNEVFHREIISEMGELGVLGPTIKGYGCAGVSSVAYGLLARELERVDSGYRSAMSVQSSLVMHPIYAHGSEEQRQKYLPQLAKGELLGCFGLTEPNSGSDPSSMETRAHYNSSNKSYTLNGTKTWITNSPMADLFVVWARCEDGCIRGFLLEKGMRGLSAPRIQGKFSLRASATGMIIMDGVEVPEENVLPGASSLGGPFGCLNNARYGIAWGVLGASEFCLHTARQYALDRMQFGVPLARNQLIQKKLADMLTEITLGLHACLQLGRLKDQDKAAPEMVSLLKRNNCGKALDIARQARDMLGGNGISDEYHVIRHAMNLEAVNTYEGTHDIHALILGRAITGIQAFTASK [Y155H]
5,increasing interaction strength,MALRGVSVRLLSRGPGLHVLRTWVSSAAQTEKGGRTQSQLAKSSRPEFDWQDPLVLEEQLTTDEILIRDTFRTYCQERLMPRILLANCNEVFHREIISEMGELGVLGPTIKGYGCAGVSSVAYGLLARELERVDSGYRSAMSVQSSLVMHPIYAYGSEEQRQKYLPQLAKGELLGCFGLTEPNSGSDPSSMETRAHYNSSNKSYTLNGTKTWITNSPMADLFVVWARCEDGCIRGFLLEKGMRGLSAPRIQGKFSLRASATGMIIMDGVEVPEENVLPGASSLGGPFGCLNNARYGIAWGVLGASEFCLHTARQYALDRMQFGVPLARNQLIQKKLADMLTEITLGLHACLQLGRLKDQDKAAPEMVSLLKRNNCGKALDIARQARDMLGGNGISDEYHVIRHAMNLEAVNTYEGTHDIHALILGRAITGIQAFTASK [R88C]
6,increasing interaction strength,MALRGVSVRLLSRGPGLHVLRTWVSSAAQTEKGGRTQSQLAKSSRPEFDWQDPLVLEEQLTTDEILIRDTFRTYCQERLMPRILLANRNEVFHLEIISEMGELGVLGPTIKGYGCAGVSSVAYGLLARELERVDSGYRSAMSVQSSLVMHPIYAYGSEEQRQKYLPQLAKGELLGCFGLTEPNSGSDPSSMETRAHYNSSNKSYTLNGTKTWITNSPMADLFVVWARCEDGCIRGFLLEKGMRGLSAPRIQGKFSLRASATGMIIMDGVEVPEENVLPGASSLGGPFGCLNNARYGIAWGVLGASEFCLHTARQYALDRMQFGVPLARNQLIQKKLADMLTEITLGLHACLQLGRLKDQDKAAPEMVSLLKRNNCGKALDIARQARDMLGGNGISDEYHVIRHAMNLEAVNTYEGTHDIHALILGRAITGIQAFTASK [R94L]
7,increasing interaction strength,MALRGVSVRLLSRGPGLHVLRTWVSSAAQTEKGGRTQSQLAKSSRPEFDWQDPLVLEEQLTTDEILIRDTFRTYCQERLMPRILLANRNEVFHREIISEMGELGVLGPTIKGYGCAGVSSVAYGLLARELERVDSGYRSAMSVQSSLVMHPIYAYGSEEQQQKYLPQLAKGELLGCFGLTEPNSGSDPSSMETRAHYNSSNKSYTLNGTKTWITNSPMADLFVVWARCEDGCIRGFLLEKGMRGLSAPRIQGKFSLRASATGMIIMDGVEVPEENVLPGASSLGGPFGCLNNARYGIAWGVLGASEFCLHTARQYALDRMQFGVPLARNQLIQKKLADMLTEITLGLHACLQLGRLKDQDKAAPEMVSLLKRNNCGKALDIARQARDMLGGNGISDEYHVIRHAMNLEAVNTYEGTHDIHALILGRAITGIQAFTASK [R161Q]
8,decreasing interaction strength,MALRGVSVRLLSRGPGLHVLRTWVSSAAQTEKGGRTQSQLAKSSRPEFDWQDPLVLEEQLTTDEILIRDTFRTYCQERLMPRILLANRNEVFHREIISEMGELGVLGPTIKGYGCAGVLSVAYGLLARELERVDSGYRSAMSVQSSLVMHPIYAYGSEEQRQKYLPQLAKGELLGCFGLTEPNSGSDPSSMETRAHYNSSNKSYTLNGTKTWITNSPMADLFVVWARCEDGCIRGFLLEKGMRGLSAPRIQGKFSLRASATGMIIMDGVEVPEENVLPGASSLGGPFGCLNNARYGIAWGVLGASEFCLHTARQYALDRMQFGVPLARNQLIQKKLADMLTEITLGLHACLQLGRLKDQDKAAPEMVSLLKRNNCGKALDIARQARDMLGGNGISDEYHVIRHAMNLEAVNTYEGTHDIHALILGRAITGIQAFTASK [S119L]
9,increasing interaction strength,MALRGVSVRLLSRGPGLHVLRTWVSSAAQTEKGGRTQSQLAKSSRPEFDWQDPLVLEEQLTTDEILIRDTFRTYCQERLMPRILLANRNEVFHREIISEMGELGVLGPTIKGHGCAGVSSVAYGLLARELERVDSGYRSAMSVQSSLVMHPIYAYGSEEQRQKYLPQLAKGELLGCFGLTEPNSGSDPSSMETRAHYNSSNKSYTLNGTKTWITNSPMADLFVVWARCEDGCIRGFLLEKGMRGLSAPRIQGKFSLRASATGMIIMDGVEVPEENVLPGASSLGGPFGCLNNARYGIAWGVLGASEFCLHTARQYALDRMQFGVPLARNQLIQKKLADMLTEITLGLHACLQLGRLKDQDKAAPEMVSLLKRNNCGKALDIARQARDMLGGNGISDEYHVIRHAMNLEAVNTYEGTHDIHALILGRAITGIQAFTASK [Y113H]
10,increasing interaction strength,MALRGVSVRLLSRGPGLHVLRTWVSSAAQTEKGGRTQSQLAKSSRPEFDWQDPLVLEEQLTTDEILIRDTFRTYCQERLMPRILLANRNEVFHREIISEMGELGVLGPTIKGYGYAGVSSVAYGLLARELERVDSGYRSAMSVQSSLVMHPIYAYGSEEQRQKYLPQLAKGELLGCFGLTEPNSGSDPSSMETRAHYNSSNKSYTLNGTKTWITNSPMADLFVVWARCEDGCIRGFLLEKGMRGLSAPRIQGKFSLRASATGMIIMDGVEVPEENVLPGASSLGGPFGCLNNARYGIAWGVLGASEFCLHTARQYALDRMQFGVPLARNQLIQKKLADMLTEITLGLHACLQLGRLKDQDKAAPEMVSLLKRNNCGKALDIARQARDMLGGNGISDEYHVIRHAMNLEAVNTYEGTHDIHALILGRAITGIQAFTASK [C115Y]
11,decreasing interaction strength,MALRGVSVRLLSRGPGLHVLRTWVSSAAQTEKGGRTQSQLAKSSRPEFDWQDPLVLEEQLTTDEILIRDTFRTYCQERLMPRILLANRNEVFHREIISEMGELGVLGPTIKGYGCAGVSSVAYGLLARELERVDSGYRSAMSVQSSLVMHPIYAYGSEEQRQKYLPQLAKGELLGCFGLTEPNSGSDPSSMETRAHYNSSNKSYTLNGTKTWITNSLMADLFVVWARCEDGCIRGFLLEKGMRGLSAPRIQGKFSLRASATGMIIMDGVEVPEENVLPGASSLGGPFGCLNNARYGIAWGVLGASEFCLHTARQYALDRMQFGVPLARNQLIQKKLADMLTEITLGLHACLQLGRLKDQDKAAPEMVSLLKRNNCGKALDIARQARDMLGGNGISDEYHVIRHAMNLEAVNTYEGTHDIHALILGRAITGIQAFTASK [P217L]
12,increasing interaction strength,MALRGVSVRLLSRGPGLHVLRTWVSSAAQTEKGGRTQSQLAKSSRPEFDWQDPLVLEEQLTTDEILIRDTFRTYCQERLMPRILLANRNEVFHREIISEMGELGVLGPTIKGYGCAGVSSVAYGLLARELERVDSGYRSAMSVQSSLVMHPIYAYGSEEQRQKYLPQLAKGELLGCFGLTEPNSGSDPSSMETRAHYNSSNKSYTLNGTKTWITNSPMADLFVVWAPCEDGCIRGFLLEKGMRGLSAPRIQGKFSLRASATGMIIMDGVEVPEENVLPGASSLGGPFGCLNNARYGIAWGVLGASEFCLHTARQYALDRMQFGVPLARNQLIQKKLADMLTEITLGLHACLQLGRLKDQDKAAPEMVSLLKRNNCGKALDIARQARDMLGGNGISDEYHVIRHAMNLEAVNTYEGTHDIHALILGRAITGIQAFTASK [R227P]
13,increasing interaction strength,MALRGVSVRLLSRGPGLHVLRTWVSSAAQTEKGGRTQSQLAKSSRPEFDWQDPLVLEEQLTTDEILIRDTFRTYCQERLMPRILLANRNEVFHREIISEMRELGVLGPTIKGYGCAGVSSVAYGLLARELERVDSGYRSAMSVQSSLVMHPIYAYGSEEQRQKYLPQLAKGELLGCFGLTEPNSGSDPSSMETRAHYNSSNKSYTLNGTKTWITNSPMADLFVVWARCEDGCIRGFLLEKGMRGLSAPRIQGKFSLRASATGMIIMDGVEVPEENVLPGASSLGGPFGCLNNARYGIAWGVLGASEFCLHTARQYALDRMQFGVPLARNQLIQKKLADMLTEITLGLHACLQLGRLKDQDKAAPEMVSLLKRNNCGKALDIARQARDMLGGNGISDEYHVIRHAMNLEAVNTYEGTHDIHALILGRAITGIQAFTASK [G101R]

# Source: IntAct's records for PubMed 28062662
